In patent WO2017222556A2 (dated 2017):

What was measured:
[1] = biological target: T1, mouse NKG2D-Fc (mouse, UniProt O54709 94-232); assay: competition ELISA: inhibition of mouse NKG2D-Fc binding to plate-coated MICA
T1 construct: also called murine NKG2D-Fc; murine NKG2D; not shown: Fc part, not described
T1 sequence (looked up): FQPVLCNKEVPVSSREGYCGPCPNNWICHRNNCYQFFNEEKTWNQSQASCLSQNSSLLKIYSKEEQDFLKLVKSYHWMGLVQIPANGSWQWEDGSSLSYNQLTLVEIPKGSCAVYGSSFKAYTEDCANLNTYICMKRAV

[2] = biological target: T2, biotinylated human NKG2D (human, UniProt P26718 78-216); assay: biolayer interferometry (Octet), surface coated biotinylated human NKG2D, 100 nM protein
T2 construct: also called surface coated biotinylated human NKG2D; recombinant biotinylated NKG2D
T2 sequence (looked up): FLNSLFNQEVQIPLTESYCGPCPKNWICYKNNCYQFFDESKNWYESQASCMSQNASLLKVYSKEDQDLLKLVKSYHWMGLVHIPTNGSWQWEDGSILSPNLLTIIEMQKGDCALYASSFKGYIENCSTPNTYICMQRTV

[3] = biological target: T3, human NKG2D-Fc (human, UniProt P26718 78-216); assay: competition ELISA: inhibition of 2 nM human NKG2D-Fc binding to plate-coated WT sMICA
T3 construct: also called human NKG2D-Fc reagent; not shown: Fc part, not described
T3 sequence (looked up): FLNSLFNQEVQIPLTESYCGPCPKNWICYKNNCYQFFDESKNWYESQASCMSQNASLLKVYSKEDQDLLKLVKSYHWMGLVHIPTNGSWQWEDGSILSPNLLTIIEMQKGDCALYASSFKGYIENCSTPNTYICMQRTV

[4] = biological target: T4, NKG2D on NKL cells (human, UniProt P26718 1-216); assay: cell-based or functional assay
T4 sequence (looked up): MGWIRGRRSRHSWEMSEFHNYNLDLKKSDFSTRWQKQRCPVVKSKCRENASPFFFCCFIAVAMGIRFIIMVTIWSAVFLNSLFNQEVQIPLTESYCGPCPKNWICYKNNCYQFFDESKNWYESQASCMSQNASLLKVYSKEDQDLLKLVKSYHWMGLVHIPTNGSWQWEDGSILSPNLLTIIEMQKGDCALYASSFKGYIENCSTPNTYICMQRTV

[5] = biological target: T2, biotinylated human NKG2D; assay: biolayer interferometry (Octet), surface-coated biotinylated human NKG2D
[6] = biological target: T2, biotinylated human NKG2D; assay: biolayer interferometry (Octet), surface-coated biotinylated human NKG2D, titration 1-100 nM
[7] = biological target: T3, human NKG2D-Fc; assay: competition ELISA: inhibition of human NKG2D-Fc binding to plate-coated WT sMICA

B1: al-a2 variant 16 (ligand)
chain: EPHSLRYNLTVLSWDGSVQSGFLTEVHLDGQPFLRCDRQKCRAKPQGQWAEDVLGNKTWDRETRDLTGWGKDLRMTLAHIKDQKEGLHSLQEIRVCEIHEDNSTRSSQHFYYDGELFLSQNLETLEWTMPQSSRAQTLAMNVRNFLKEDAMETDTHYHAMRADCLQELRRYLKSGVVLRRTVPPMVQVTRSEASGGSGDRVTITCRASQDVSTAVAWYQQKPGKAPKLLIYSASFLYSGVPSRFSGSGSGTDFTLTISSLQPEDFATYYCQQSYTTPPTFGQGTKVEIKGGSSRSSSSGGGGSGGGGEVQLVESGGGLVQPGGSLRLSCAASGFTFTSTGISWVRQAPGKGLEWVGRIYPTNGSTNYADSVKGRFTISADTSKNTAYLQMNSLRAEDTAVYYCARTYGIYDLYVDYTEYVMDYWGQGTLVTVSSGGSSRSSSSGGGGSGGGGDIQMTQSPSSLSASGGSGQITVTCRASGFYPWNITLSWRQDGVSLSHDTQQWGDVLPDGQGTYQTWVATRISQGEEQRFTCYMEHSGQHSTHPVPSGKGSHHHHHH
binding result [1]: binds
fold affinity increase relative to WT al -a2 [2]: 30 fold
fold reduction in the off-rate relative to WT [2]: 18 fold
IC50 [3]: 0.7 nM
fold better binding to NKG2D than WT NKG2DL [3]: 27 fold
killing of FGFR3-expressing P815 cells by NKL cells, calcein-release assay, fold against WT at 0.78 nM [4]: ~15 fold

B2: al-a2 variant 25 (ligand)
chain: EPHSLRYNLTVLSWDGSVQSGFLTEVHLDGQPFLRCDRQKCRAKPQGQWAEDVLGNKTWDRETRDLTGWGKDLRMTLAHIKDQKEGLHSLQEIRVCEIHEDNSTRSSQHFYYDGELFLSQNLETLEWTMPQSSRAQTLAMNVRNFLKEDAMETDTHYHAMRADCLSELRRYLKSGVVLRRTVPPMVQVTRSEASGGSGDRVTITCRASQDVSTAVAWYQQKPGKAPKLLIYSASFLYSGVPSRFSGSGSGTDFTLTISSLQPEDFATYYCQQSYTTPPTFGQGTKVEIKGGSSRSSSSGGGGSGGGGEVQLVESGGGLVQPGGSLRLSCAASGFTFTSTGISWVRQAPGKGLEWVGRIYPTNGSTNYADSVKGRFTISADTSKNTAYLQMNSLRAEDTAVYYCARTYGIYDLYVDYTEYVMDYWGQGTLVTVSSGGSSRSSSSGGGGSGGGGDIQMTQSPSSLSASGGSGQITVTCRASGFYPWNITLSWRQDGVSLSHDTQQWGDVLPDGQGTYQTWVATRISQGEEQRFTCYMEHSGQHSTHPVPSGKGSHHHHHH
fold enhancement in equilibrium binding affinity against variant 16 [5]: 8 fold
Kd [6]: 0.062 nM
EC50 for cell killing, fold improvement against variant 16 [4]: ~5 fold
killing of FGFR3-expressing P815 cells by NKL cells, calcein-release assay, fold against variant 16 at 0.2 nM [4]: ~3 fold

B3: al-a2 variant 15 (ligand)
chain: EPHSLRYNLTVLSWDGSVQSGFLTEVHLDGQPFLRCDRQKCRAKPQGQWAEDVLGNKTWDRETRDLTGWGKDLRMTLAHIKDQKEGLHSLQEIRVCEIHEDNSTRSSQHFYYDGELFLSQNLETNEWTMPQSSRAQTLAMNVRNFLKEDAMETDTHYHAMRADCLQELRRYLKSGVVLRRTVPPMVQVTRSEASGGSGDRVTITCRASQDVSTAVAWYQQKPGKAPKLLIYSASFLYSGVPSRFSGSGSGTDFTLTISSLQPEDFATYYCQQSYTTPPTFGQGTKVEIKGGSSRSSSSGGGGSGGGGEVQLVESGGGLVQPGGSLRLSCAASGFTFTSTGISWVRQAPGKGLEWVGRIYPTNGSTNYADSVKGRFTISADTSKNTAYLQMNSLRAEDTAVYYCARTYGIYDLYVDYTEYVMDYWGQGTLVTVSSGGSSRSSSSGGGGSGGGGDIQMTQSPSSLSASGGSGQITVTCRASGFYPWNITLSWRQDGVSLSHDTQQWGDVLPDGQGTYQTWVATRISQGEEQRFTCYMEHSGQHSTHPVPSGKGSHHHHHH
binding result [1]: binds
IC50 [3]: 1.7 nM
fold better binding to NKG2D than WT NKG2DL [3]: 11 fold

B4: al-a2 variant 48 (ligand)
chain: EPHSLRYNLTVLSWDGSVQSGFLTEVHLDGQPFLRCDRQKCRAKPQGQWAEDVLGNKTWDRETRDLTGWGKDLRMTLAHIKDQKEGLHSLQEIRVCEIHEDNSTRSSQHFYYDGELFLSQNLETLEWTMPQSSRAQTLAMNVRNFLKEDAMATDTHYIAMRADCLAELRRYLKSGVVLRRTVPPMVQVTRSEASGGSGDRVTITCRASQDVSTAVAWYQQKPGKAPKLLIYSASFLYSGVPSRFSGSGSGTDFTLTISSLQPEDFATYYCQQSYTTPPTFGQGTKVEIKGGSSRSSSSGGGGSGGGGEVQLVESGGGLVQPGGSLRLSCAASGFTFTSTGISWVRQAPGKGLEWVGRIYPTNGSTNYADSVKGRFTISADTSKNTAYLQMNSLRAEDTAVYYCARTYGIYDLYVDYTEYVMDYWGQGTLVTVSSGGSSRSSSSGGGGSGGGGDIQMTQSPSSLSASGGSGQITVTCRASGFYPWNITLSWRQDGVSLSHDTQQWGDVLPDGQGTYQTWVATRISQGEEQRFTCYMEHSGQHSTHPVPSGKGSHHHHHH
fold reduction in NKG2D binding affinity [6]: 250 fold

B5: al-a2 variant 17 (ligand)
chain: EPHSLRYNLTVLSWDGSVQSGFLTEVHLDGQPFLRCDRQKCRAKPQGQWAEDVLGNKTWDRETRDLTLWGKDLRMTLAHIKDQKEGLHSLQEIRVCEIHEDNSTRSSQHFYYDGELFLSQNLETLEWTMPQSSRAQTLAMNVRNFLKEDAMETDTHYHAMRADCLQELRRYLKSGVVLRRTVPPMVQVTRSEASGGSGDRVTITCRASQDVSTAVAWYQQKPGKAPKLLIYSASFLYSGVPSRFSGSGSGTDFTLTISSLQPEDFATYYCQQSYTTPPTFGQGTKVEIKGGSSRSSSSGGGGSGGGGEVQLVESGGGLVQPGGSLRLSCAASGFTFTSTGISWVRQAPGKGLEWVGRIYPTNGSTNYADSVKGRFTISADTSKNTAYLQMNSLRAEDTAVYYCARTYGIYDLYVDYTEYVMDYWGQGTLVTVSSGGSSRSSSSGGGGSGGGGDIQMTQSPSSLSASGGSGQITVTCRASGFYPWNITLSWRQDGVSLSHDTQQWGDVLPDGQGTYQTWVATRISQGEEQRFTCYMEHSGQHSTHPVPSGKGSHHHHHH
fold affinity increase relative to WT al -a2 [2]: 30 fold
fold reduction in the off-rate relative to WT [2]: 18 fold
IC50 [3]: 0.6 nM
fold better binding to NKG2D than WT NKG2DL [3]: 32 fold
killing of FGFR3-expressing P815 cells by NKL cells, calcein-release assay, fold against WT at 0.78 nM [4]: ~15 fold

B6: al-a2 variant 18 (ligand)
chain: EPHSLRYNLTVLSWDGSVQPGFLTEVHLDGQPFLRCDRQKCRAKPQGQWAEDVLGNKTWDRETRDLTLWGKDLRMTLAHIKDQKEGLHSLQEIRVCEIHEDNSTRSSQHFYYDGELFLSQNLETLEWTMPQSSRAQTLAMNVRNFLKEDAMETDTHYHAMRADCLQELRRYLKSGVVLRRTVPPMVQVTRSEASGGSGDRVTITCRASQDVSTAVAWYQQKPGKAPKLLIYSASFLYSGVPSRFSGSGSGTDFTLTISSLQPEDFATYYCQQSYTTPPTFGQGTKVEIKGGSSRSSSSGGGGSGGGGEVQLVESGGGLVQPGGSLRLSCAASGFTFTSTGISWVRQAPGKGLEWVGRIYPTNGSTNYADSVKGRFTISADTSKNTAYLQMNSLRAEDTAVYYCARTYGIYDLYVDYTEYVMDYWGQGTLVTVSSGGSSRSSSSGGGGSGGGGDIQMTQSPSSLSASGGSGQITVTCRASGFYPWNITLSWRQDGVSLSHDTQQWGDVLPDGQGTYQTWVATRISQGEEQRFTCYMEHSGQHSTHPVPSGKGSHHHHHH
fold affinity increase relative to WT al -a2 [2]: 30 fold
fold reduction in the off-rate relative to WT [2]: 18 fold
IC50 [3]: 0.5 nM
fold better binding to NKG2D than WT NKG2DL [3]: 38 fold
killing of FGFR3-expressing P815 cells by NKL cells, calcein-release assay, fold against WT at 0.78 nM [4]: ~15 fold

B7: WED-MICA (ligand)
chain: EPHSLRYNLTVLSWDGSVQSGFLTEVHLDGQPFLRCDRQKCRAKPQGQWAEDVLGNKTWDRETRDLTGWGKDLRMTLAHIKDQKEGLHSLQEIRVCEIHEDNSTRSSQHFYYDGELFLSQNLETKEWTMPQSSRAQTLAMNVRNFLKEDAMETDTHYHAMHADCLQELRRYLKSGVVLRRTVPPMVQVTRSEASGGSGDRVTITCRASQDVSTAVAWYQQKPGKAPKLLIYSASFLYSGVPSRFSGSGSGTDFTLTISSLQPEDFATYYCQQSYTTPPTFGQGTKVEIKGGSSRSSSSGGGGSGGGGEVQLVESGGGLVQPGGSLRLSCAASGFTFTSTGISWVRQAPGKGLEWVGRIYPTNGSTNYADSVKGRFTISADTSKNTAYLQMNSLRAEDTAVYYCARTYGIYDLYVDYTEYVMDYWGQGTLVTVSSGGSSRSSSSGGGGSGGGGDIQMTQSPSSLSASGGSGQITVTCRASGFYPWNITLSWRQDGVSLSHDTQQWGDVLPDGQGTYQTWVATRISQGEEQRFTCYMEHSGQHSTHPVPSGKGSHHHHHH
notes: also called WED- al-cc2 domains; WED soluble MICA
binding result [1]: binds
binding result [7]: binds
